The target of the assay is SCMV-BJ VPg-YFP^N (BiFC fusion, pUC-SPYNE) (Sugarcane mosaic virus, Beijing isolate (SCMV-BJ)). The experiment in a line: split reporter (BiFC, NanoBiT); BiFC: YFP^N and YFP^C fusions co-transfected into maize protoplasts; YFP fluorescence captured at 12-18 h post transfection by confocal microscopy.

“YFP^C-ZmElc (BiFC fusion, pGD-YFP^C-ZmELC) (natural protein)” showed a percentage of protoplasts exhibiting fluorescence signal of 64%.

The values are drawn from paper PMC4143955.
